Results published in patent US20210300985A1 (published 2021).

Key:
Test in all cases: competition binding; FIG. 35A
[1] = target: HLA-DRB1*1501 (human)
[2] = target: HLA-DRB1*0301 (human)
[3] = target: HLA-DRB1*0701 (human)
[4] = target: HLA-DRB1*0401 (human)
[5] = target: HLA-DRB1*1101 (human)
[6] = target: HLA-DRB1*1301 (human)
[7] = target: HLA-DRB1*0101 (human)

Row | Binder | IC50 [1] | IC50 [2] | IC50 [3] | IC50 [4] | IC50 [5] | IC50 [6] | IC50 [7]
1 | ESNIMSTINGYVPES [SEQ ID NO: 5 (ESNIMSTINGYVPES)] | 4.22 µM | 80.5 µM | 2.79 µM | 96.4 µM | – | – | –
2 | KIVFKNMASRPYSIY [SEQ ID NO: 3 (KIVFKNMASRPYSIY)] | 2.69 µM | 78.6 µM | 7.03 µM | 20.1 µM | 4.36 µM | 2.96 µM | 2.17 µM
3 | SHEFHAINGMIYSLP [SEQ ID NO: 7 (SHEFHAINGMIYSLP)] | < 1 µM | – | < 1 µM | 30.6 µM | 33.7 µM | 84.4 µM | < 1 µM
4 | EKDIHSGLIGPLLI [SEQ ID NO: 6 (EKDIHSGLIGPLLI)] | 2.02 µM | – | – | – | – | – | 1.92 µM
